Experimental data reported in patent publication US6524820B1, “Lectins and coding sequences” (University of Georgia Research Foundation, Inc., priority 1997, dated 2003).
Entries after “also recorded” stand apart in the source; their conditions may differ.

B1: XL35: soluble, calcium-dependent lectin from Xenopus laevis oocytes, SEQ ID NO:2 (protein)
chain: MLVHILLLLVTGGLSQSCDPVVIVASKNMVKQLDCDKFRNCKEIKDSNEEAQDGIYTLTSPDGISYQTFCDMTTNGGGWTLVASVHENNMAGKCTIGDRWSSQQGNRADYPEGDGNWANYNTFGSAGGATSDDYKNPGYYDIEAYNLGVWHVPNKTPLSVWRNSSLQRYRTTDGILFKHGGNLFSLYRIYPVKYGIGSCSKDSGPTVPVVYDLGSANLTASFYSPGFRSQFTPGYIQFRPINTEKAALALCPGMKMESCNVEHVCIGGGGYFPEADPRQCGDFAAYDFNGYGTKKFNSAGIEITEAAVLLFYL
B2: HL-3: human calcium-dependent lectin family member, homolog of XL35, SEQ ID NO:4 (protein)
chain: MNQLSFLLFLIATTRGWSTDEANTYFKEWTCSSSPSLPRSCKEIKDECPSAFDGLYFLRTENGVIYQTFCDMTSGGGGWTLVASVHENDMRGKCTVGDRWSSQQGSKADYPEGDGNWANYNTFGSAEAATSDDYKNPGYYDIQAKDLGIWHVPNKSPMQHWRNSSLLRYRTDTGFLQTLGHNLFGIYQKYPVKYGEGKCWTDNGPVIPVVYDFGDAQKTASYYSPYGQREFTAGFVQFRVFNNERAANALCAGMRVTGCNTEHHCIGGGGYFPEASPQQCGDFSGFDWSGYGTHVGYSSSREITEAAVLLFYR
B3: HL-13: human homolog of XL35 expressed in small intestine, SEQ ID NO:6 (protein)
chain: MLSMLRTMTRLCFLLFFSVATSGCSAAAASSLEMLSREFETCAFSFSSLPRSCKEIKERCHSAGDGLYFLRTKNGVVYQTFCDMTSGGGGWTLVASVHENDMRGKCTVGDRWSSQQGNKADYPEGDGNWANYNTFGSAEAATSDDYKNPGYYDIQAKDLGIWHVPNKSPMQHWRNSALLRYRTNTGFLQRLGHNLFGIYQKYPVKYRSGKCWNDNGPAIPVVYDFGDAKKTASYYSPYGQREFVAGFVQFRVFNNERAANALCAGIKVTGCNTEHHCIGGGGFFPQGKPRQCGDFSAFDWDGYGTHVKSSCSREITEAAVLLFYR

Key:
[1] = tested on: trypsinized, glutaraldehyde-fixed rabbit erythrocytes; test: Erythrocyte agglutination assay; assay type: cell-based
Procedure: The assay was performed essentially as described using trypsinized, glutaraldehyde-fixed rabbit erythrocytes [Barondes and Roberson (1987) Methods Enzymol. 138, 516-20] in TCS buffer (10 mM Tris, pH 7.6, 10 mM CaCl2, 150 mM NaCl). To compare the agglutination properties of both the purified and recombinant lectins, the two lectins were assayed under similar conditions. Because the eluted recombinant lectin was in 8 M urea, a solution of purified non-recombinant lectin was also brought to 8 M with a concentrated urea solution. The agglutination assay was performed using […] of either recombinant or native XL35 lectin in […] TCS and 8 M urea was added to wells of a 96-well microtiter plate. Next, […] of TCS alone or TCS containing 0.4 M EDTA or 1.0 M melibiose or 1.0 M sucrose was added to the wells and mixed with the lectin solution. To this solution, 50 ml of a 1:1 suspension of trypsinized, glutaraldehyde-fixed rabbit erythrocytes in TCS was added and the contents of the wells were mixed by trituration. The final concentration of urea in the wells was 2 M, while that of EDTA was 0.10 M and that of melibiose and sucrose were 0.25 M. Agglutination activity was scored after 1.5 hr. at room temperature using an inverted microscope on low power. […]

[2] = Solubility of recombinant lectins in urea; assay type: physicochemical; details: bacterially expressed recombinant lectin
Procedure: Expression of human HL-3 and HL-13 coding sequences was performed using the same method for expression of XL-35. […] Purification and renaturation carried out as for XL35.

[3] = Melibiose affinity chromatography (binding to immobilized melibiose); details: in the presence of Ca2+
Procedure: The rabbit, mouse, Xenopus laevis heart extracts, and various in vitro translation products were applied to a column of immobilized melibiose-agarose to analyze carbohydrate binding specificity. The heart extracts of rabbit, mouse, and Xenopus laevis were prepared by the method as described above and applied to a melibiose affinity column (total volume, 1 ml on Econo column) that was pre-equilibrated with TCS. After washing with 10 ml of TCS containing 0.3 M sucrose, bound protein was eluted with TCS containing 0.1 M EDTA. One ml of each fraction was collected and subjected to western blotting followed by 4-15% SDS-PAGE. Each 30 μl of in vitro translation product was diluted with 2×TCS (1:1) and applied to the melibiose column using same method. After separation of fractions on 4-15% SDS-PAGE, the results were analyzed by autoradiography.

Row | Molecule | agglutination activity retained relative to assay in TCS alone ([1]; after 1.5 hr in TCS plus 2 M urea) | agglutination of trypsinized, fixed rabbit erythrocytes ([1]; in 2 M urea) | concentration of urea required for solution [2] | binding to immobilized melibiose [3]
1 | B1 | 25-50% | active | 2 M | –
2 | B2 | – | – | – | no in vitro translation products of HL-3 and HL-13 bound; also recorded: do not appear to bind specifically
3 | B3 | – | – | – | no in vitro translation products of HL-3 and HL-13 bound; also recorded: do not appear to bind specifically
